How the values were obtained:
[1] = molecular target: T1, Gelsolin (GSN) (Homo sapiens, UniProt P06396 SEQ:28-782); experiment: microtiter (ELISA-type) assay, immobilized aptamer, 100 nM gelsolin; selection buffer with 2 mM CaCl2, 5 mM MgCl2; RT; details: tags: tagless; expressed from pET303/CT-His vector in E. coli BL21(DE3); label: biotin
[2] = molecular target: T1, Gelsolin (GSN); experiment: microtiter (ELISA-type) assay, immobilized aptamer 1.56-100 nM, 100 nM gelsolin; 25 mM Tris pH 8, 150 mM NaCl, 2 mM CaCl2, 5 mM MgCl2, 10 mM KCl; RT; details: tags: tagless; expressed from pET303/CT-His vector in E. coli BL21(DE3); label: biotin

T1 sequence (P06396 28-782): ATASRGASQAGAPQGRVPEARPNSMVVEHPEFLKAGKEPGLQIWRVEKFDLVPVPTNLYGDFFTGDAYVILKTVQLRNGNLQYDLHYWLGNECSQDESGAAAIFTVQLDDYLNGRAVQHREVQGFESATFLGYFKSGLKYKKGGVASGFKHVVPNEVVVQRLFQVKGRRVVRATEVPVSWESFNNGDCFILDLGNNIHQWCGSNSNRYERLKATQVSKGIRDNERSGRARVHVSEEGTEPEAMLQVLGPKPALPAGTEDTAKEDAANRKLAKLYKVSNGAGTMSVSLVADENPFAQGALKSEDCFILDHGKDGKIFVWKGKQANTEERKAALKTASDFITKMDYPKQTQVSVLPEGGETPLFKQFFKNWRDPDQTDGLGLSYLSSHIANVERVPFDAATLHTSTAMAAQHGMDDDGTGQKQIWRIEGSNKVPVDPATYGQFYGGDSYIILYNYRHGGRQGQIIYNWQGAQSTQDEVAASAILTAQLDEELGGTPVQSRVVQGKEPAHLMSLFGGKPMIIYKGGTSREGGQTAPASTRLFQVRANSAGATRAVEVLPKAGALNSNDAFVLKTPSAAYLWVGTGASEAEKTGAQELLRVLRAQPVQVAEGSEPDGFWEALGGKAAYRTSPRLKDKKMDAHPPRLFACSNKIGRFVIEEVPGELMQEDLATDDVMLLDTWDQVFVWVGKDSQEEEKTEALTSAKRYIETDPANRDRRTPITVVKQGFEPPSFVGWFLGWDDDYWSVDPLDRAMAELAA

Row | Binder | Kd [1] [nM] | Kd [2] [nM]
1 | L24F (ssDNA) DNA: TAGGGAAGAGAAGGACATATGATCGGGGGGCGGGTATTGGGGGCCGGGGGGATTGACTAGTACATGACCACTTGA | 15.7 | –
2 | L16F (ssDNA) DNA: TAGGGAAGAGAAGGACATATGATAGGGGGATAGGAGGGGGTGGGATTGGGGGATTGACTAGTACATGACCACTTGA | 12.7 | –
3 | 10.10R (ssDNA) DNA: TCAAGTGGTCATGTACTAGTCAAGCACTTTCGCTGCTCGCTGGCGCCGCGCCCATCATATGTCCTTCTCTTCCCTA | – | 7.2
4 | L26F (ssDNA) DNA: TAGGGAAGAGAAGGACATATGATGGGGCACTGGAGGGTGGGGGAGCGGGGGCGGTTGACTAGTACATGACCACTTGA | 15.3 | –

Source: patent US20170260530, “APTAMERS FOR PURIFYING AND QUANTIFYING GELSOLIN AND ITS VARIANTS” (Council of Scientific & Industrial Research, published 2017)
